Experimental data: patent US11242370B2, “Neuregulin-4 compounds and methods of use” (Eli Lilly and Company, priority 2019, dated 2022)
Substitutions are numbered along the chain they refer to. Numbers in names are those of the source. Each block holds one molecule with its values, some of them ahead of it.

Target: T1, human HER2/HER3 (Homo sapiens, UniProt P21860)
T1 construct: expressed in transfected cells
Test: Human HER2/HER3 phospho-ERK 1/2 assay, purified proteins, CHO-K1 cells
Assay type: cell-based
Conditions: for EC50: purified proteins, phospho-ERK1/2
Procedure: A cell based assay utilizing CHO-K1 cells overexpressing human or rat HER receptors is used to determine activity of NRG4 compounds. CHO-K1 cells (ATCC) are grown in DMEM-F12 3:1 with 5% FBS with 20 mM HEPES, 40 μg/mL L-Proline, lx antibiotics and were split 1:5 every 2-3 days with TripLE Express (Gibco). Cells are transfected with plasmid DNA encoding HER receptors in pairs (hHER2-3, hHER2-4, rHER2-3 and rHER2-4) with Fugene 6 (Promega) according to the manufacturer's instructions. […] Transfected cells are selected with Puromycin (12 ug/ml) and Hygromycin (1 mg/ml) for 3-4 weeks and clonal lines are obtained by limited dilution cloning into 96 well plates. Clonal lines are selected by appropriate gene expression of HER2, HER3 or HER4 by Taqman method. Lines with appropriate receptor expression are confirmed by NRG1 induced phospho-ERK 1/2 responses. Clones are grown up, harvested, aliquoted into cryovials and then frozen under liquid nitrogen for long-term storage.
A phospho-ERK1/2 activity assay is utilized with CHO-K1 cells overexpressing human or rat HER receptors to determine potencies and selectivity of purified NRG4 compounds. CHO-K1 cell lines expressing the human or rat HER receptors are cultured with selection medium (DMEM-F12 3:1 with 5% FBS with 20 mM HEPES, 40 μg/mL L-Proline, 1× antibiotics, 12 μg/mL puromycin, 1 mg/mL Hygromycin B). On Day −1 (the day before phospho-ERK1/2 assay), cells are washed once with PBS, detached with enzyme free cell dissociation solution (GIBCO cat #13151-014), and resuspended in plating medium (DMEM-F12 3:1 with 20 mM HEPES, lx antibiotics, 0.2% FBS). Cells are plated in a 96-well Poly-D-Lysine coated plate (BD cat #354640) at 10,000 cells per 0.1 mL per well. Cells are cultured in a tissue culture incubator at 37° C. 5% CO2 overnight. On Day 1 (the day of pERK1/2 assay), plates are incubated at room temperature for 30 min. The culture media are removed followed by addition of 504, ligand at various concentrations diluted in PBS-20 mM HEPES-0.005% BSA. Native human NRG1 and NRG4 peptides are purchased from Reprokine (Tampa, Fla.). The stimulation time is 30 min (except for hHER2-4 1H6 line in which 15 min is used for stimulation). At the end of stimulation, ligands are removed and 704, Lysis buffer (made according to manufacturer's recipe, Perkin Elmer cat #ALSU-PERK-A10K) is added. Plates are incubated at room temperature for 10 min on plate shaker with 350 rpm agitation, then on ice for 1 hour without shaking. 304, of cell lysis is transferred to a 96-well white Optiplate (Perkin Elmer cat #6002290) for phospho-ERK1/2 assay. Briefly 7.5 μL acceptor beads are added to 30 μL lysis in Optiplate. The plate is covered with aluminum foil and incubated at room temperature for 1 hour on plate shaker with 350 rpm agitation. Then 7.5 μL donor beads are added and the plate is covered with aluminum foil and incubated at room temperature for 2 hours on plate shaker with 350 rpm agitation or at 4° C. for overnight (warm up plate at room temperature for 2 h before reading). Alpha signal data are obtained on an Envision instrument (Alpha Technology-compatible plate reader). Donor beads and acceptor beads are made according to assay protocol. The data shown are generated with either the AlphaScreen SureFire p-ERK1/2 (Thr202/Tyr204) assay kit (Cat #TGRES50k) or the AlphaLISA® SureFire® Ultra™ p-ERK 1/2 (Thr202/Tyr204) assay kit (Perkin Elmer cat #ALSU-PERK-A10K). The activity of the NRG1 peptide was similar in both types of assays. […]

EC50: 0.83 ± 0.2 nM
Molecule: WT NRG1: wild type human NRG1; native peptide purchased from Reprokine in Tables 7-9; comparator in the screening assays of Tables 4 and 6

EC50: > 1000 nM | phospho-ERK1/2 activity at the human HER3 HER2 receptors (statement in text on Table 9): no activity
Molecule: WT NRG4: wild type human NRG4 (SEQ ID NO:1); parental hFcNRG4 in screening (Tables 4-6), native peptide from Reprokine in Tables 7-9 (DHEEPCGPSHKSFCLNGGLCYVIPTIPSPFCRCVENYTGARCEEVFL; listed as Homo sapiens)

B1: Example 10: NRG4 D1G/V22Q/E44K, (GGGGS)3 linker, SEQ ID NO: 19, fused to IgG Fc dimer SEQ ID NO: 6 and 7 (protein)
chain 1: GGGGSGGGGSGGGGSGHEEPCGPSHKSFCLNGGLCYQIPTIPSPFCRCVENYTGARCEKVFL
chain 2: ECPPCPAPPVAGPSVFLFPPKPKDTLMISRTPEVTCVVVDVSHEDPEVQFNWYVDGVEVHNAKTKPREEQFNSTFRVVSVLTVVHQDWLNGKEYKCKVSNKGLPAPIEKTISKTKGQPREPQVYTLPPSREEMTKNQVSLWCLVKGFYPSDIAVEWESNGQPENNYKTTPPVLDSDGSFFLYSKLTVDKSRWQQGNVFSCSVMHEALHNHYTQKSLSLSPG
chain 3: B1 chain 2 with W141S, L143A, Y182V
EC50: > 1000 nM
